Data on 3 molecules can be found in US20250019437A1.

The target of test [1] is T1, human TREM2 (triggering receptor expressed on myeloid cells 2) (human) (UniProt Q9NZC2).
T1 sequence (looked up): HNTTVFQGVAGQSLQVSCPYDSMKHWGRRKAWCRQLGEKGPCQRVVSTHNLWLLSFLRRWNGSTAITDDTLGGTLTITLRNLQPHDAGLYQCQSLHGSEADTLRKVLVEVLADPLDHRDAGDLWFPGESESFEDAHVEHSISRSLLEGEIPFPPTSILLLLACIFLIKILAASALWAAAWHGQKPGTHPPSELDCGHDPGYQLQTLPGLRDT
The experiment in a line: 1st screen, 10 nM Ab.

The target of test [2] is T1, human TREM2 (triggering receptor expressed on myeloid cells 2) (human). The experiment in a line: 2nd screen, 10 nM Ab.
For test [3] the target is unchanged. The experiment in a line: 2nd screen, 2 nM Ab.

B1: 6E7 antibody affinity modulation variant V27 (antibody, V domains shown)
VH: EVQLVQSGAEVKKPGESLKISCKGSGYSFTSYWIAWVRQMPGKGLEWMGIIYPGDSDTRYAPSFQGQVTISADKSISTAYLQWSSLKASDTAMYFCVRSRTFYYDSSDYFDYWGQGTLVTVSS
VL: DIQMTQSPSSVSASVGDRVTITCRASQGISSWLAWYQQKPGKAPKLLIYAASSLQRGVPSRFSGSGSGTDFTLTISSLQPEDFATYFCQQADSFPRTFGQGTKLEIK
Regarding B1, the values for the Binding Signal (fold over 6E7 parental antibody) in test [1], in test [2] and in test [3] were 5.5 fold, 5.69 fold and 5.67 fold, respectively.

B2: 6E7 antibody affinity modulation variant V28 (antibody, V domains shown)
VH: EVQLVQSGAEVKKPGESLKISCKGSGYSFQSYWIAWVRQMPGKGLEWMGTIYPGDSDTRYSPSFQGQVTISADKSISTAYLQWSSLKASDTAMYFCARQRTFFYDSSDYFDYWGQGTLVTVSS
VL: DIQMTQSPSSVSASVGDRVTITCRASQGISSWLAWYQQKPGKAPKLLIYAASSLQSGVPSRFSGSGSGTDFTLTISSLQPEDFATYFCQQADSLPRTFGQGTKLEIK
B2: the Binding Signal (fold over 6E7 parental antibody) in test [1] was determined as 3.08 fold; in test [2], 3.61 fold; in test [3], 2.63 fold.

B3: 6E7 antibody affinity modulation variant V29 (antibody, V domains shown)
VH: EVQLVQSGAEVKKPGESLKISCKGSGYSFKSYWIAWVRQMPGKGLEWMGIIYPGDSDTRYSPSFQGQVTISADKSISTAYLQWSSLKASDTAMYFCARQRTFYYDSSDYFDYWGQGTLVTVSS
VL: DIQMTQSPSSVSASVGDRVTITCRASQGISSWLAWYQQKPGKAPKLLIYAASSLQNGVPSRFSGSGSGTDFTLTISSLQPEDFATYFCQQADSFPRTFGQGTKLEIK
Regarding B3, the Binding Signal (fold over 6E7 parental antibody) was determined as 1.53 fold in test [1], 1.67 fold in test [2] and 0.84 fold in test [3].
